Experimental findings from doi:10.1101/2023.12.13.571504 (bioRxiv, 2023) are described below.

The data set deals with the molecule itself. In words: cross-linking.

B1: msfGFP-GRP8^WT (Arabidopsis thaliana Glycine-Rich RNA-Binding Protein 8 fused to monomeric superfolder GFP) (natural protein, UniProt Q03251 1-169, looked up)
chain: MSEVEYRCFVGGLAWATNDEDLQRTFSQFGDVIDSKIINDRESGRSRGFGFVTFKDEKAMRDAIEEMNGKELDGRVITVNEAQSRGSGGGGGGRGGSGGGYRSGGGGGYSGGGGGGYSGGGGGGYERRSGGYGSGGGGGGRGYGGGGRREGGGYGGGDGGSYGGGGGGW
As a reminder, the stoichiometry N is a count of units in the complex or per binding partner. As to B1, the “stoichiometry N” value stood at 2.

B2: msfGFP-GRP8^R7A (natural protein, Arabidopsis thaliana, UniProt Q03251 1-169, looked up)
chain: MSEVEYACFVGGLAWATNDEDLQRTFSQFGDVIDSKIINDRESGRSRGFGFVTFKDEKAMRDAIEEMNGKELDGRVITVNEAQSRGSGGGGGGRGGSGGGYRSGGGGGYSGGGGGGYSGGGGGGYERRSGGYGSGGGGGGRGYGGGGRREGGGYGGGDGGSYGGGGGGW
Consider B2, for which the binding result is given as “binds”.
